Measurements published in the Human Domainome abundance scans (Beltran et al. 2025).
± gives the uncertainty stated by the source.

B1: Tumor protein 63, residues 545 to 610; numbered along this chain, Q9H3D4 (parent)
chain: TDCSIVSFLARLGCSSCLDYFTTQGLTTIYQIEHYSMDDLASLKIPEQFRHAIWKGILDHRQLHEF

Variants of: B1
Experiment: abundance fitness (aPCA) (normalised: wild type 0, dead -1); higher = more abundant; growth selection in yeast, the domain comes from the species named
Conditions: Homo sapiens
TDCSIVSFLARLGCSSCGDYFTTQGLTTIYQIEHYSMDDLASLKIPEQFRHAIWKGILDHRQLHEF [L18G] gave an abundance fitness of -0.08 ± 0.031. TDCSIVSFLARLGCNSCLDYFTTQGLTTIYQIEHYSMDDLASLKIPEQFRHAIWKGILDHRQLHEF [S15N] showed an abundance fitness of -0.034 ± 0.026. TDCSIVSFLARLGCTSCLDYFTTQGLTTIYQIEHYSMDDLASLKIPEQFRHAIWKGILDHRQLHEF [S15T] showed an abundance fitness of 0 ± 0.029. TDCSIVSFLARLGCASCLDYFTTQGLTTIYQIEHYSMDDLASLKIPEQFRHAIWKGILDHRQLHEF [S15A] showed an abundance fitness of -0.046 ± 0.026. TDCSIVSFLARLGCYSCLDYFTTQGLTTIYQIEHYSMDDLASLKIPEQFRHAIWKGILDHRQLHEF [S15Y] showed an abundance fitness of -0.096 ± 0.043. For TDCSIVSFLARLGCHSCLDYFTTQGLTTIYQIEHYSMDDLASLKIPEQFRHAIWKGILDHRQLHEF [S15H], the abundance fitness was -0.031 ± 0.038. TDCSIVSFLARLGCPSCLDYFTTQGLTTIYQIEHYSMDDLASLKIPEQFRHAIWKGILDHRQLHEF [S15P] showed an abundance fitness of -0.086 ± 0.031. TDCSIVSFLARLGCDSCLDYFTTQGLTTIYQIEHYSMDDLASLKIPEQFRHAIWKGILDHRQLHEF [S15D] gave an abundance fitness of -0.064 ± 0.055. For TDCSIVSFLARLGCMSCLDYFTTQGLTTIYQIEHYSMDDLASLKIPEQFRHAIWKGILDHRQLHEF [S15M], the abundance fitness was -0.076 ± 0.034. With TDCSIVSFLARLGCWSCLDYFTTQGLTTIYQIEHYSMDDLASLKIPEQFRHAIWKGILDHRQLHEF [S15W] the abundance fitness was -0.179 ± 0.03. With TDCSIVSFLARLGCGSCLDYFTTQGLTTIYQIEHYSMDDLASLKIPEQFRHAIWKGILDHRQLHEF [S15G] the abundance fitness was -0.059 ± 0.029. TDCSIVSFLARLGCVSCLDYFTTQGLTTIYQIEHYSMDDLASLKIPEQFRHAIWKGILDHRQLHEF [S15V] showed an abundance fitness of -0.077 ± 0.031. TDCSIVSFLARLGCCSCLDYFTTQGLTTIYQIEHYSMDDLASLKIPEQFRHAIWKGILDHRQLHEF [S15C] gave an abundance fitness of -0.057 ± 0.037. For TDCSIVSFLARLGCKSCLDYFTTQGLTTIYQIEHYSMDDLASLKIPEQFRHAIWKGILDHRQLHEF [S15K], the abundance fitness was -0.037 ± 0.034. With TDCSIVSFLARLGCLSCLDYFTTQGLTTIYQIEHYSMDDLASLKIPEQFRHAIWKGILDHRQLHEF [S15L] the abundance fitness was -0.061 ± 0.025. Work on TDCSIVSFLARLGCRSCLDYFTTQGLTTIYQIEHYSMDDLASLKIPEQFRHAIWKGILDHRQLHEF [S15R] yielded an abundance fitness of -0.052 ± 0.023. Work on TDCSIVSFLARLGCFSCLDYFTTQGLTTIYQIEHYSMDDLASLKIPEQFRHAIWKGILDHRQLHEF [S15F] yielded an abundance fitness of -0.157 ± 0.029. Variant TDCSIVSFLARLGCQSCLDYFTTQGLTTIYQIEHYSMDDLASLKIPEQFRHAIWKGILDHRQLHEF [S15Q] has an abundance fitness of 0.008 ± 0.033. For TDCSIVSFLARLGCESCLDYFTTQGLTTIYQIEHYSMDDLASLKIPEQFRHAIWKGILDHRQLHEF [S15E], the abundance fitness was -0.067 ± 0.049. TDCSIVSFLARLGCISCLDYFTTQGLTTIYQIEHYSMDDLASLKIPEQFRHAIWKGILDHRQLHEF [S15I] showed an abundance fitness of -0.042 ± 0.04. Work on TDCSIVSFLARLWCSSCLDYFTTQGLTTIYQIEHYSMDDLASLKIPEQFRHAIWKGILDHRQLHEF [G13W] yielded an abundance fitness of -0.829 ± 0.063. TDCSIVSFLARLYCSSCLDYFTTQGLTTIYQIEHYSMDDLASLKIPEQFRHAIWKGILDHRQLHEF [G13Y] gave an abundance fitness of -0.298 ± 0.057. Variant TDCSIVSFLARLQCSSCLDYFTTQGLTTIYQIEHYSMDDLASLKIPEQFRHAIWKGILDHRQLHEF [G13Q] has an abundance fitness of -0.04 ± 0.094. With TDCSIVSFLARLRCSSCLDYFTTQGLTTIYQIEHYSMDDLASLKIPEQFRHAIWKGILDHRQLHEF [G13R] the abundance fitness was -0.077 ± 0.024. Work on TDCSIVSFLARLSCSSCLDYFTTQGLTTIYQIEHYSMDDLASLKIPEQFRHAIWKGILDHRQLHEF [G13S] yielded an abundance fitness of -0.076 ± 0.027. In the case of TDCSIVSFLARLVCSSCLDYFTTQGLTTIYQIEHYSMDDLASLKIPEQFRHAIWKGILDHRQLHEF [G13V], the abundance fitness is reported as -0.804 ± 0.042. For TDCSIVSFLARLTCSSCLDYFTTQGLTTIYQIEHYSMDDLASLKIPEQFRHAIWKGILDHRQLHEF [G13T], the abundance fitness was -0.188 ± 0.073. With TDCSIVSFLARLGCSACLDYFTTQGLTTIYQIEHYSMDDLASLKIPEQFRHAIWKGILDHRQLHEF [S16A] the abundance fitness was -0.037 ± 0.021. For TDCSIVSFLARLGCSWCLDYFTTQGLTTIYQIEHYSMDDLASLKIPEQFRHAIWKGILDHRQLHEF [S16W], the abundance fitness was -0.165 ± 0.037. With TDCSIVSFLARLGCSRCLDYFTTQGLTTIYQIEHYSMDDLASLKIPEQFRHAIWKGILDHRQLHEF [S16R] the abundance fitness was -0.092 ± 0.024. TDCSIVSFLARLGCSYCLDYFTTQGLTTIYQIEHYSMDDLASLKIPEQFRHAIWKGILDHRQLHEF [S16Y] showed an abundance fitness of -0.156 ± 0.038. Variant TDCSIVSFLARLGCSTCLDYFTTQGLTTIYQIEHYSMDDLASLKIPEQFRHAIWKGILDHRQLHEF [S16T] has an abundance fitness of -0.073 ± 0.03. With TDCSIVSFLARLGCSHCLDYFTTQGLTTIYQIEHYSMDDLASLKIPEQFRHAIWKGILDHRQLHEF [S16H] the abundance fitness was -0.059 ± 0.036. In the case of TDCSIVSFLARLGCSCCLDYFTTQGLTTIYQIEHYSMDDLASLKIPEQFRHAIWKGILDHRQLHEF [S16C], the abundance fitness is reported as 0.016 ± 0.033. With TDCSIVSFLARLGCSFCLDYFTTQGLTTIYQIEHYSMDDLASLKIPEQFRHAIWKGILDHRQLHEF [S16F] the abundance fitness was -0.106 ± 0.031. Variant TDCSIVSFLARLGCSPCLDYFTTQGLTTIYQIEHYSMDDLASLKIPEQFRHAIWKGILDHRQLHEF [S16P] has an abundance fitness of -0.006 ± 0.045. Work on TDCSIVSFLARLGCSKCLDYFTTQGLTTIYQIEHYSMDDLASLKIPEQFRHAIWKGILDHRQLHEF [S16K] yielded an abundance fitness of -0.12 ± 0.03. In the case of TDCSIVSFLARLGCSGCLDYFTTQGLTTIYQIEHYSMDDLASLKIPEQFRHAIWKGILDHRQLHEF [S16G], the abundance fitness is reported as -0.023 ± 0.019. Variant TDCSIVSFLARLGCSECLDYFTTQGLTTIYQIEHYSMDDLASLKIPEQFRHAIWKGILDHRQLHEF [S16E] has an abundance fitness of -0.033 ± 0.025. For TDCSIVSFLARLGCSICLDYFTTQGLTTIYQIEHYSMDDLASLKIPEQFRHAIWKGILDHRQLHEF [S16I], the abundance fitness was -0.089 ± 0.042. In the case of TDCSIVSFLARLGCSDCLDYFTTQGLTTIYQIEHYSMDDLASLKIPEQFRHAIWKGILDHRQLHEF [S16D], the abundance fitness is reported as -0.012 ± 0.032.
